Data reported in US20090149339A1 (published 2009).
Ends that are not written are not given here. * marks the point of attachment. Biotin = O=C1N[C@H]2[C@H](CS[C@H]2CCCCC(=O)*)N1

target: T1, GST-NeDLG PDZ domain fusion protein (presynaptic protein sao102, neuroendocrine-dlg; PDZ domains 1-2 of 3) (UniProt P08515 1-218 = GST); experiment: G assay
T1 construct: also called NeDLG1
T1 sequence (P08515 1-218, tags or fused parts left off): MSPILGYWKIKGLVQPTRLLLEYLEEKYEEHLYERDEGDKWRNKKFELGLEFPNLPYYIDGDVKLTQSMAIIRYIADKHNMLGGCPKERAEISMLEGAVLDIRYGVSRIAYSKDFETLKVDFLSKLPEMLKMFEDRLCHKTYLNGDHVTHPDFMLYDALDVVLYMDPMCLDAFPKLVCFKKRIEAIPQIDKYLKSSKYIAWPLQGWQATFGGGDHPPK

Binder	binding result
Biotin-QATSRNGHSARQHVVADTEL [CD34 C-terminal PL peptide AA7L, biotinylated]	binds
Biotin-ISKATPALPTVSISSSAEV (also called AA1L-R) [CLASP-1 C-terminal PL peptide AA1L, biotinylated]	binds

target: GST-PSD95 PDZ domain fusion protein (human post-synaptic density protein 95 AA387-724; PDZ domains 1-3 of 3) (human, UniProt P08515 1-218 = GST); experiment: A assay
Sequence (P08515 1-218, tags or fused parts left off): as the sequence (P08515 1-218, tags or fused parts left off) above

Binder	binding result
Biotin-QATSRNGHSARQHVVADTEL [CD34 C-terminal PL peptide AA7L, biotinylated]	binds
Biotin-ISKATPALPTVSISSSAEV (also called AA1L-R) [CLASP-1 C-terminal PL peptide AA1L, biotinylated]	binds

target: GST-AF6 PDZ domain fusion protein (af-6 protein AA985-1077; PDZ domain 1 of 1) (UniProt P08515 1-218 = GST); experiment: A/G assays

Binder	binding result
Biotin-QATSRNGHSARQHVVADTEL [CD34 C-terminal PL peptide AA7L, biotinylated]	no binding
Biotin-ISKATPALPTVSISSSAEV (also called AA1L-R) [CLASP-1 C-terminal PL peptide AA1L, biotinylated]	no binding

target: T2, GST-KIAA0316 PDZ domain fusion protein (KIAA0316 AA197-284; PDZ domain 1 of 1) (UniProt P08515 1-218 = GST); experiment: A/G assays
T2 construct: also called K316

Binder	binding result
Biotin-QATSRNGHSARQHVVADTEL [CD34 C-terminal PL peptide AA7L, biotinylated]	no binding
Biotin-ISKATPALPTVSISSSAEV (also called AA1L-R) [CLASP-1 C-terminal PL peptide AA1L, biotinylated]	no binding

target: T3, GST-KIAA0303 PDZ domain fusion protein (KIAA0303 AA652-742; PDZ domain 1 of 1) (UniProt P08515 1-218 = GST); experiment: A/G assays
T3 construct: also called K303
T3 sequence (P08515 1-218, tags or fused parts left off): as the sequence (P08515 1-218, tags or fused parts left off) above

Binder	binding result
Biotin-QATSRNGHSARQHVVADTEL [CD34 C-terminal PL peptide AA7L, biotinylated]	no binding
Biotin-ISKATPALPTVSISSSAEV (also called AA1L-R) [CLASP-1 C-terminal PL peptide AA1L, biotinylated]	no binding

target: T4, GST-TAX2 PDZ domain fusion protein (human tax interaction protein 2 AA54-140; PDZ domain 1 of 1) (human, UniProt P08515 1-218 = GST); experiment: A/G assays
T4 construct: also called TX 2
T4 sequence (P08515 1-218, tags or fused parts left off): as the sequence (P08515 1-218, tags or fused parts left off) above

Binder	binding result
Biotin-QATSRNGHSARQHVVADTEL [CD34 C-terminal PL peptide AA7L, biotinylated]	no binding
Biotin-ISKATPALPTVSISSSAEV (also called AA1L-R) [CLASP-1 C-terminal PL peptide AA1L, biotinylated]	no binding

target: T5, GST-CASK PDZ domain fusion protein (CASK AA495-584; PDZ domain 1 of 1) (mouse, UniProt P08515 1-218 = GST); experiment: A/G assays
T5 construct: also called mCASK
T5 sequence (P08515 1-218, tags or fused parts left off): as the sequence (P08515 1-218, tags or fused parts left off) above

Binder	binding result
Biotin-QATSRNGHSARQHVVADTEL [CD34 C-terminal PL peptide AA7L, biotinylated]	no binding
Biotin-ISKATPALPTVSISSSAEV (also called AA1L-R) [CLASP-1 C-terminal PL peptide AA1L, biotinylated]	no binding

target: T6, GST-TAX33 PDZ domain fusion protein (tax interaction protein 33 AA73-162; PDZ domain 1 of 1) (UniProt P08515 1-218 = GST); experiment: A/G assays
T6 construct: also called TX33

Binder	binding result
Biotin-QATSRNGHSARQHVVADTEL [CD34 C-terminal PL peptide AA7L, biotinylated]	no binding
Biotin-ISKATPALPTVSISSSAEV (also called AA1L-R) [CLASP-1 C-terminal PL peptide AA1L, biotinylated]	no binding

target: T7, GST-MPP2 PDZ domain fusion protein (maguk p55 subfamily member 2 (DLG2) AA185-273; PDZ domain 1 of 1) (UniProt P08515 1-218 = GST); experiment: A/G assays
T7 construct: also called MMP2
T7 sequence (P08515 1-218, tags or fused parts left off): as the sequence (P08515 1-218, tags or fused parts left off) above

Binder	binding result
Biotin-QATSRNGHSARQHVVADTEL [CD34 C-terminal PL peptide AA7L, biotinylated]	no binding
Biotin-ISKATPALPTVSISSSAEV (also called AA1L-R) [CLASP-1 C-terminal PL peptide AA1L, biotinylated]	no binding

target: GST-prIL16 PDZ domain fusion protein (putative interleukin 16 precursor AA170-383; PDZ domains 1-2 of 2) (UniProt P08515 1-218 = GST); experiment: A/G assays
Sequence (P08515 1-218, tags or fused parts left off): as the sequence (P08515 1-218, tags or fused parts left off) above

Binder	binding result
Biotin-QATSRNGHSARQHVVADTEL [CD34 C-terminal PL peptide AA7L, biotinylated]	no binding
Biotin-ISKATPALPTVSISSSAEV (also called AA1L-R) [CLASP-1 C-terminal PL peptide AA1L, biotinylated]	no binding

target: T8, GST-TAX43 PDZ domain fusion protein (human tax interaction protein 43 AA15-85; PDZ domain 1 of 1) (human, UniProt P08515 1-218 = GST); experiment: A/G assays
T8 construct: also called TX 43
T8 sequence (P08515 1-218, tags or fused parts left off): as the sequence (P08515 1-218, tags or fused parts left off) above

Binder	binding result
Biotin-QATSRNGHSARQHVVADTEL [CD34 C-terminal PL peptide AA7L, biotinylated]	no binding
Biotin-ISKATPALPTVSISSSAEV (also called AA1L-R) [CLASP-1 C-terminal PL peptide AA1L, biotinylated]	no binding

target: GST-MINT3 PDZ domain fusion protein (human MINT3 AA11-52; PDZ domain 1 of 1) (human, UniProt P08515 1-218 = GST); experiment: A/G assays
Sequence (P08515 1-218, tags or fused parts left off): as the sequence (P08515 1-218, tags or fused parts left off) above

Binder	binding result
Biotin-QATSRNGHSARQHVVADTEL [CD34 C-terminal PL peptide AA7L, biotinylated]	no binding
Biotin-ISKATPALPTVSISSSAEV (also called AA1L-R) [CLASP-1 C-terminal PL peptide AA1L, biotinylated]	no binding

target: GST-TIAM1 PDZ domain fusion protein (T-lymphoma invasion and metastasis inducing protein 1 AA1001-1088); PDZ 1 … (UniProt P08515 1-218 = GST); experiment: A/G assays
Sequence (P08515 1-218, tags or fused parts left off): as the sequence (P08515 1-218, tags or fused parts left off) above

Binder	binding result
Biotin-QATSRNGHSARQHVVADTEL [CD34 C-terminal PL peptide AA7L, biotinylated]	no binding
Biotin-ISKATPALPTVSISSSAEV (also called AA1L-R) [CLASP-1 C-terminal PL peptide AA1L, biotinylated]	no binding

target: T9, GST-KIAA0559 PDZ domain fusion protein (KIAA0559 AA766-870; PDZ1 of 1) (UniProt P08515 1-218 = GST); experiment: A/G assays
T9 construct: also called K559
T9 sequence (P08515 1-218, tags or fused parts left off): as the sequence (P08515 1-218, tags or fused parts left off) above

Binder	binding result
Biotin-QATSRNGHSARQHVVADTEL [CD34 C-terminal PL peptide AA7L, biotinylated]	no binding
Biotin-ISKATPALPTVSISSSAEV (also called AA1L-R) [CLASP-1 C-terminal PL peptide AA1L, biotinylated]	no binding

target: T10, GST-RGS12 PDZ domain fusion protein (human regulator of G-protein signalling 12 AA35-103; PDZ domain 1 of 1) (human, UniProt P08515 1-218 = GST); experiment: A/G assays
T10 construct: also called RSG12
T10 sequence (P08515 1-218, tags or fused parts left off): as the sequence (P08515 1-218, tags or fused parts left off) above

Binder	binding result
Biotin-QATSRNGHSARQHVVADTEL [CD34 C-terminal PL peptide AA7L, biotinylated]	no binding
Biotin-ISKATPALPTVSISSSAEV (also called AA1L-R) [CLASP-1 C-terminal PL peptide AA1L, biotinylated]	no binding

target: T11, GST-SYN1a PDZ domain fusion protein (alpha1-syntrophin AA96-189; PDZ domain 1 of 1) (UniProt P08515 1-218 = GST); experiment: A/G assays
T11 construct: also called SYN 1 alpha; SYNTR 1 alpha
T11 sequence (P08515 1-218, tags or fused parts left off): as the sequence (P08515 1-218, tags or fused parts left off) above

Binder	binding result
Biotin-QATSRNGHSARQHVVADTEL [CD34 C-terminal PL peptide AA7L, biotinylated]	no binding
Biotin-ISKATPALPTVSISSSAEV (also called AA1L-R) [CLASP-1 C-terminal PL peptide AA1L, biotinylated]	no binding

target: T12, GST-41.8 kD PDZ domain fusion protein (hypothetical 41.8 kD protein AA4-85; PDZ domain 1 of 1) (UniProt P08515 1-218 = GST); experiment: A/G assays
T12 construct: also called hypoth
T12 sequence (P08515 1-218, tags or fused parts left off): as the sequence (P08515 1-218, tags or fused parts left off) above

Binder	binding result
Biotin-QATSRNGHSARQHVVADTEL [CD34 C-terminal PL peptide AA7L, biotinylated]	no binding
Biotin-ISKATPALPTVSISSSAEV (also called AA1L-R) [CLASP-1 C-terminal PL peptide AA1L, biotinylated]	no binding

target: GST-DVL1 PDZ domain fusion protein (human dishevelled segment polarity protein homolog AA248-340); PDZ domain … (human, UniProt P08515 1-218 = GST); experiment: A/G assays
Sequence (P08515 1-218, tags or fused parts left off): as the sequence (P08515 1-218, tags or fused parts left off) above

Binder	binding result
Biotin-QATSRNGHSARQHVVADTEL [CD34 C-terminal PL peptide AA7L, biotinylated]	no binding
Biotin-ISKATPALPTVSISSSAEV (also called AA1L-R) [CLASP-1 C-terminal PL peptide AA1L, biotinylated]	no binding

target: GST-NOS1 PDZ domain fusion protein (human neuronal nitric oxide synthase; PDZ domain 1 of 1) (human, UniProt P08515 1-218 = GST); experiment: A/G assays
Sequence (P08515 1-218, tags or fused parts left off): as the sequence (P08515 1-218, tags or fused parts left off) above

Binder	binding result
Biotin-QATSRNGHSARQHVVADTEL [CD34 C-terminal PL peptide AA7L, biotinylated]	no binding
Biotin-ISKATPALPTVSISSSAEV (also called AA1L-R) [CLASP-1 C-terminal PL peptide AA1L, biotinylated]	no binding

target: GST-PTN-4 PDZ domain fusion protein (protein-tyrosine phosphatase meg1 AA774-862; PDZ domain 1 of 1) (UniProt P08515 1-218 = GST); experiment: A/G assays
Sequence (P08515 1-218, tags or fused parts left off): as the sequence (P08515 1-218, tags or fused parts left off) above

Binder	binding result
Biotin-QATSRNGHSARQHVVADTEL [CD34 C-terminal PL peptide AA7L, biotinylated]	no binding
Biotin-ISKATPALPTVSISSSAEV (also called AA1L-R) [CLASP-1 C-terminal PL peptide AA1L, biotinylated]	no binding

target: T13, GST-CBP PDZ domain fusion protein (Cytohesin binding protein HE AA85-175; PDZ domain 1 of 1) (UniProt P08515 1-218 = GST); experiment: A/G assays
T13 construct: also called Prot
T13 sequence (P08515 1-218, tags or fused parts left off): as the sequence (P08515 1-218, tags or fused parts left off) above

Binder	binding result
Biotin-QATSRNGHSARQHVVADTEL [CD34 C-terminal PL peptide AA7L, biotinylated]	no binding
Biotin-ISKATPALPTVSISSSAEV (also called AA1L-R) [CLASP-1 C-terminal PL peptide AA1L, biotinylated]	no binding

target: GST-LIM PDZ domain fusion protein (Human LIM protein AA29-112; PDZ domain 1 of 1) (human, UniProt P08515 1-218 = GST); experiment: A/G assays
Sequence (P08515 1-218, tags or fused parts left off): as the sequence (P08515 1-218, tags or fused parts left off) above

Binder	binding result
Biotin-QATSRNGHSARQHVVADTEL [CD34 C-terminal PL peptide AA7L, biotinylated]	no binding
Biotin-ISKATPALPTVSISSSAEV (also called AA1L-R) [CLASP-1 C-terminal PL peptide AA1L, biotinylated]	no binding

target: GST-MPP1 PDZ domain fusion protein (55 Kd erythrocyte membrane protein AA101-186; PDZ domain 1 of 1) (UniProt P08515 1-218 = GST); experiment: A/G assays
Sequence (P08515 1-218, tags or fused parts left off): as the sequence (P08515 1-218, tags or fused parts left off) above

Binder	binding result
Biotin-QATSRNGHSARQHVVADTEL [CD34 C-terminal PL peptide AA7L, biotinylated]	no binding
Biotin-ISKATPALPTVSISSSAEV (also called AA1L-R) [CLASP-1 C-terminal PL peptide AA1L, biotinylated]	no binding

target: T14, GST-TAX40 PDZ domain fusion protein (human tax interaction protein 40 AA35-137; PDZ domain 1 of 1) (human, UniProt P08515 1-218 = GST); experiment: A/G assays
T14 construct: also called TX 40

Binder	binding result
Biotin-QATSRNGHSARQHVVADTEL [CD34 C-terminal PL peptide AA7L, biotinylated]	no binding
Biotin-ISKATPALPTVSISSSAEV (also called AA1L-R) [CLASP-1 C-terminal PL peptide AA1L, biotinylated]	no binding

target: GST-LIMK2 PDZ domain fusion protein (human LIM domain kinase 2 AA185-275; PDZ domain 1 of 1) (human, UniProt P08515 1-218 = GST); experiment: A/G assays
Sequence (P08515 1-218, tags or fused parts left off): as the sequence (P08515 1-218, tags or fused parts left off) above

Binder	binding result
Biotin-QATSRNGHSARQHVVADTEL [CD34 C-terminal PL peptide AA7L, biotinylated]	no binding
Biotin-ISKATPALPTVSISSSAEV (also called AA1L-R) [CLASP-1 C-terminal PL peptide AA1L, biotinylated]	no binding
